In US20100233157A1 (published 2010):

Tests used:
[1] = target: T1, Human Fas (CD95) on the cell surface (human, UniProt P25445 26-335); assay: cell-based or functional assay
T1 sequence: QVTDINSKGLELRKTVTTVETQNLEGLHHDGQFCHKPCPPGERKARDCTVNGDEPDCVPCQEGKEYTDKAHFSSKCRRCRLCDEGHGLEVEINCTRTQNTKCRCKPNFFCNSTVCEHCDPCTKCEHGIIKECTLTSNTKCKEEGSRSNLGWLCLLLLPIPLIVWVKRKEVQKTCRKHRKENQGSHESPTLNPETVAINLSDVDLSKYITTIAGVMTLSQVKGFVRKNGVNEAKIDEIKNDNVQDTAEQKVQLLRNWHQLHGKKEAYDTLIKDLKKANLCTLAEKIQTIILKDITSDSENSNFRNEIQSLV

[2] = target: T1, Human Fas (CD95) on the cell surface; assay: flow cytometry on the human B cell line SKW6.4, FITC anti-human IgG secondary, MFI after subtraction of the control human γ1 staining
[3] = target: T2, Cynomolgus macaque Fas on the cell surface (cynomolgus macaque, UniProt Q9TSN4 26-331); assay: flow cytometry histograms (FL1-H) on cynomolgus macaque cells (cell type not printed on the sheet), FITC anti-human kappa or FITC anti-human IgG secondary
T2 construct: whole, on cells; also called Fas on cynomolgus macaque B cell line and PBL
T2 sequence (looked up): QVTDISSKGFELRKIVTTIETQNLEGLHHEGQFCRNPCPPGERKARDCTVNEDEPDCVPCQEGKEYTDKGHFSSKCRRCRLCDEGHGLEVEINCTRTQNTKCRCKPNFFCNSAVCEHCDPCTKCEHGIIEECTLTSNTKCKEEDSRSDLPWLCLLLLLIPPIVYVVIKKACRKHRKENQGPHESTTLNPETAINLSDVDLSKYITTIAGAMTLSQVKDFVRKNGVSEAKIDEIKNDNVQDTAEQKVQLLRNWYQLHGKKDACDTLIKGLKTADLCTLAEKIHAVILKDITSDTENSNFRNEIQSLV
Source text: (§1) Reactivity of F45D9-γ1 or F45D9-γ4 mAb with Fas molecules of various species was initially screened using primary blood cells or lymphocytes cell lines. The binding of F45D9-γ1 or F45D9-γ4 mAb was explored by immunofluoresce staining and flow cytometry analysis, in human PBMC, purified human resting T cells, activated human T cells, peripheral blood lymphocytes (PBL) derived from BALE/c mice, rat, dog and pig, and in B cell lines or PBL derived from common marmoset, cynomolgus macaque, olive baboon, rhesus macaque and chimpanzee. Resting and activated human T cells were prepared as described in Example 7. B cells lines from monkeys were obtained from Biomedical Primate Research Center (Rijswijk, The Netherlands), and were cultured in RPMI 1640 medium supplemented with 2 mM glutamax, 100 UI/mL penicillin, 100 μg/mL streptomycin and 10% fetal bovine serum, at 37° C. and 5% CO₂. After washing in PBS cells (0.2−0.4×10⁶ cells/well) were incubated in staining buffer (PBS/1% FBS) containing F45D9-γ1 or human IgG control antibodies (10-20 ug/ml) in a 96-well U-bottom plate for 30 min on ice, in a 100 ul/well volume. Cells were then washed once with staining buffer, and further incubated for 30 min on ice with 1:30 dilution of FITC-conjugated rabbit F(ab′)₂ anti-human kappa (DakoCytomation Cat. F0434) or FITC-conjugated rabbit F(ab′)₂ anti-human IgG (DakoCytomation Cat. F0056). […]

[4] = target: T3, Common marmoset Fas on the cell surface (common marmoset (Callithrix jacchus)); assay: flow cytometry on the marmoset B cell line 9505, FITC anti-human IgG secondary, MFI after subtraction of the control human γ1 staining
T3 construct: whole, on cells
Source text: as §1

[5] = target: T1, Human Fas (CD95) on the cell surface; assay: flow cytometry on SKW6.4 cells, FITC anti-human IgG secondary, geometric MFI after background subtraction
Protocol: Binding of F45D9-γ1 and F45D9-γ4 to the surface of Fas expressing Jurkat and SKW6.4 cells (from ATCC, Jurkat, clone E6-1, ATCC-TIB-152, Human T Leukemia cell line); SKW6.4 cells, ATCC-TIB-215, Human B lymphoblastoid cell line) was explored by immunofluorescence staining and flow cytometry analysis. Cells were cultured in RPMI 1640 medium (GIBCO, Cat. 3105205) supplemented with 2 mM glutamax (GIBCO), 100 UI/mL penicillin, 100 μg/mL streptomycin (Sigma) and 5-10% fetal bovine serum (GIBCO), at 37° C. and 5% CO₂. After washing in PBS Jurkat or SKW6.4 cells (0.2×10⁶ cells/well) were incubated in staining buffer (PBS/1% FBS) containing F45D9-γ1, F45D9-γ4 or human IgG control antibodies (Human IgG1, kappa, Sigma, Cat. I5154 or Human IgG4, kappa, Sigma, Cat. I4639) in a 96-well U-bottom plate for 30 min on ice, in a 100 ul/well volume. Cells were then washed once with staining buffer, and further incubated for 30 min on ice with 1:30 dilution of FITC-conjugated rabbit F(ab′)₂ anti-human IgG (DakoCytomation Cat. F0056). After washing and fixing with 1% formaldehyde in PBS cells were analyzed in a FACScan (Becton Dickinson, Mountain View, Calif.). The reactivity of F45D9-γ1 and F45D9-γ4 to the surface of Jurkat cells was quantified and Geometric Mean Fluorescence Intensity (MFI) after background subtraction (FIG. 1A) and histograms (FIG. 1B) are shown. […]

B1: F45D9-γ1 mAb (recombinant human mAb T17/B2-1G4, gamma-1 isotype) (antibody, V domains shown)
VH: QVQLQQWGAGLLKPSETLSLICAVYGGSFSTYYWTWIRQPPGKGLEWIGEINHRGTTNYSPSLKSRVTISVDTSKNHISLNLTSVTAADTALYYCARGLLWIGEGDYGLDVWGQGTTVTVSS
VL: DIQMTQSPSSLSASVGDRVTITCRASQGIRRWLAWYQQKPEKAPKSLIYAASSLQSGVPSRFSGSGSGTDFTLTISSLQPEDFATYYCQQYNSYPYTFGQGTKLEIKR
notes: Whole human IgG1 (γ1fa allotype) with human kappa light chain, made in CHO DG44 cells; also called IgG1; T17/L18/B2-1G4
[1]
  IC50 of inhibition of rhFasL-induced apoptosis in SKW6.4 cells (Annexin-V/PI, flow cytometry): 0.2 nM
  IC50 of inhibition of rhFasL-induced apoptosis in activated human T cells (Annexin-V/PI, flow cytometry): 0.02 nM
  share of binding capacity on Jurkat cells at which complete blocking of FasL-induced apoptosis is achieved: ≥ 12.5%
[2]
  EC50 (read off the curve): ~0.8 µg/mL
[3]
  binding result: no binding
[4]
  EC50 (read off the curve): ~2 µg/mL
[5]
  EC50 (read off the curve): ~0.4 µg/mL
